Laboratory results published in patent publication US9081020B2, “Mutant proteins and methods for selecting them” (Heptares Therapeutics Limited, priority 2008, dated 2015).
Where two headings read alike, the source gives them in different places.

Test system: M1 mAChR
Type: physicochemical
Settings: 0.82% BOG, 3 h, 4° C.; for % 3H-NMS retained BOG: whole E. coli BL21 cells, single culture; for % loss/wt: % loss relative to wild-type control; for mean % retained: mean of the cultures
Method: This concentration was determined by analysing wild-type M1 mAChRs expressed in the inner cell membranes of intact E. Coli strain BL21 cells. The cells were pre-labelled with the radiolabelled antagonist 3H—N-methyl scopolamine and resuspended to a pre-determined cell density (Absorbance at 600 nm=2.0) in a chosen buffer (in this case 50 mM sodium phosphate, 1 mM EDTA, pH 7.5). […] The wild-type M1 mAChRs were titrated by the addition of increasing concentrations of beta octyl glucoside dissolved in the same buffer for different times (e.g. 1 h, 2 h, 3 h, 5 h, 15 h) and at different temperatures (e.g. 4° C., 15° C.). The loss of specifically-bound radioligand was then measured after recovering the cells by centrifugation (15000×g, 15 min.). In the example, the centrifugation step was performed on duplicate 1 ml aliquots of the cells. The experiment was repeated 3 times. […] It will be appreciated that the cell density, detergent concentration and other parameters of the assay may be varied to adjust the loss of activity as appropriate.
(a) A state of in-situ destabilisation of a particular membrane protein in a particular cell membrane as a result of the addition of a particular concentration of a particular detergent, can be defined by the loss of the characteristic specific ligand binding activity of the membrane protein for a particular ligand of interest in the presence of a defined concentration of a particular detergent molecule or other solubilising agent.
A preferred version of the assay is destabilisation of a membrane protein-ligand complex in a detergent-enriched membrane. The membrane protein, either in a membrane preparation, or in intact cells in-vivo or ex-vivo, is pre-incubated with a labelled version of the ligand, the label, for instance, being a radioactive label, or a fluorescent label, and the binding step preferably being allowed to proceed to equilibrium, defined as the achievement of a time-invariant level of binding. To define membrane protein-independent, or non-specific, binding the binding step is performed with the addition of a second non-labelled ligand, called the competing ligand, having an appropriate membrane protein-specific pharmacology, at a concentration sufficient fully to occupy the binding sites of the membrane protein and thereby exclude the binding of the labelled ligand. The difference between the binding of the labelled ligand in the absence and presence of the competing ligand is defined as the specific binding of the labelled ligand. Measurement of binding requires a suitable method for separating and measuring bound ligand. Characteristically, this involves centrifugation of intact cells or membranes for a time and at a centrifugal force adequate to pellet them (for instance, 15000×g for 15 min in the case of E. coli cells, or 100,000×g for plasma membrane preparations), or filtration of a membrane suspension e.g. through a suitable filter paper such as glass fibre paper e.g. GF-B or GF-C followed by counting of radioactivity. Alternatively, it might involve the measurement of an optical signal such as enhancement of fluorescence emission in the case of fluorescent ligands.
To perform the in-situ destabilisation assay, a pre-determined concentration of the detergent or other destabilising agent of choice is mixed with a membrane or cell suspension containing the pre-labelled membrane protein in an appropriate buffer composition at a particular temperature and for a particular time, determined as described below.

B1: L65G: M1 mAChR mutant L65G recovered by randomisation of the codon for position 65 (protein)
chain: MNTSAPPAVSPNITVLAPGKGPWQVAFIGITTGLLSLATVTGNLLVLISFKVNTELKTVNNYFLGSLACADLIIGTFSMNLYTTYLLMGHWALGTLACDLWLALDYVASNASVMNLLLISFDRYFSVTRPLSYRAKRTPRRAALMIGLAWLVSFVLWAPAILFWQYLVGERTVLAGQCYIQFLSQPIITFGTAMAAFYLPVTVMCTLYWRIYRETENRARELAALQGSETPGKGGGSSSSSERSQPGAEGSPETPPGRCCRCCRAPRLLQAYSWKEEEEEDEGSMESLTSSEGEEPGSEVVIKMPMVDPEAQAPTKQPPRSSPNTVKRPTKKGRDRAGKGQKPRGKEQLAKRKTFSLVKEKKAARTLSAILLAFILTWTPYNIMVLVSTFCKDCVPETLWELGYWLCYVNSTINPMCYALCNKAFRDTFRLLLLCRWDKRRWRKIPKRPGSVHRTPSRQC
For B1, the “% 3H-NMS retained BOG” value (listed as L65 G 1) was 49%, the “% 3H-NMS retained BOG” value (listed as L65 G 2) was 39% and the “% loss/wt” value was 1.06. The mean % retained was 44%.

B2: L65A + L151A: M1 mAChR double mutant (protein)
chain: MNTSAPPAVSPNITVLAPGKGPWQVAFIGITTGLLSLATVTGNLLVLISFKVNTELKTVNNYFLASLACADLIIGTFSMNLYTTYLLMGHWALGTLACDLWLALDYVASNASVMNLLLISFDRYFSVTRPLSYRAKRTPRRAALMIGLAWAVSFVLWAPAILFWQYLVGERTVLAGQCYIQFLSQPIITFGTAMAAFYLPVTVMCTLYWRIYRETENRARELAALQGSETPGKGGGSSSSSERSQPGAEGSPETPPGRCCRCCRAPRLLQAYSWKEEEEEDEGSMESLTSSEGEEPGSEVVIKMPMVDPEAQAPTKQPPRSSPNTVKRPTKKGRDRAGKGQKPRGKEQLAKRKTFSLVKEKKAARTLSAILLAFILTWTPYNIMVLVSTFCKDCVPETLWELGYWLCYVNSTINPMCYALCNKAFRDTFRLLLLCRWDKRRWRKIPKRPGSVHRTPSRQC
B2 was tested, and the “% 3H-NMS retained BOG” value (listed as L65A + L151A 1) was 70%, the “% 3H-NMS retained BOG” value (listed as L65A + L151A 2) was 76% and the “% loss/wt” value was 0.51. For the same molecule, the mean % retained was 73%.

B3: M384/27: Sequencing established that M384/27 is M384C (M1 mAChR) (protein, UniProt P11229 1-460, looked up, variant M384C)
Muscarinic acetylcholine …: MNTSAPPAVSPNITVLAPGKGPWQVAFIGITTGLLSLATVTGNLLVLISFKVNTELKTVNNYFLLSLACADLIIGTFSMNLYTTYLLMGHWALGTLACDLWLALDYVASNASVMNLLLISFDRYFSVTRPLSYRAKRTPRRAALMIGLAWLVSFVLWAPAILFWQYLVGERTVLAGQCYIQFLSQPIITFGTAMAAFYLPVTVMCTLYWRIYRETENRARELAALQGSETPGKGGGSSSSSERSQPGAEGSPETPPGRCCRCCRAPRLLQAYSWKEEEEEDEGSMESLTSSEGEEPGSEVVIKMPMVDPEAQAPTKQPPRSSPNTVKRPTKKGRDRAGKGQKPRGKEQLAKRKTFSLVKEKKAARTLSAILLAFILTWTPYNICVLVSTFCKDCVPETLWELGYWLCYVNSTINPMCYALCNKAFRDTFRLLLLCRWDKRRWRKIPKRPGSVHRTPSRQC
B3 was tested, and the “% 3H-NMS retained BOG” value (listed as M384/27 1) was 63%, the “% 3H-NMS retained BOG” value (listed as M384/27 2) was 73% and the “% loss/wt” value was 0.6. It also gave a mean % retained of 68%.

B4: L65A + M145A: M1 mAChR double mutant (protein)
chain: MNTSAPPAVSPNITVLAPGKGPWQVAFIGITTGLLSLATVTGNLLVLISFKVNTELKTVNNYFLASLACADLIIGTFSMNLYTTYLLMGHWALGTLACDLWLALDYVASNASVMNLLLISFDRYFSVTRPLSYRAKRTPRRAALAIGLAWLVSFVLWAPAILFWQYLVGERTVLAGQCYIQFLSQPIITFGTAMAAFYLPVTVMCTLYWRIYRETENRARELAALQGSETPGKGGGSSSSSERSQPGAEGSPETPPGRCCRCCRAPRLLQAYSWKEEEEEDEGSMESLTSSEGEEPGSEVVIKMPMVDPEAQAPTKQPPRSSPNTVKRPTKKGRDRAGKGQKPRGKEQLAKRKTFSLVKEKKAARTLSAILLAFILTWTPYNIMVLVSTFCKDCVPETLWELGYWLCYVNSTINPMCYALCNKAFRDTFRLLLLCRWDKRRWRKIPKRPGSVHRTPSRQC
In the case of B4, the “% 3H-NMS retained BOG” value (listed as L65A + M145A 1) is reported as 91%, the “% 3H-NMS retained BOG” value (listed as L65A + M145A 2) is reported as 73% and the “% loss/wt” value is reported as 0.34. For the same molecule, the mean % retained was 82%.

B5: M384/40: Sequencing established that M384/40 is M384G (M1 mAChR) (protein, UniProt P11229 1-460, looked up, variant M384G)
Muscarinic acetylcholine …: MNTSAPPAVSPNITVLAPGKGPWQVAFIGITTGLLSLATVTGNLLVLISFKVNTELKTVNNYFLLSLACADLIIGTFSMNLYTTYLLMGHWALGTLACDLWLALDYVASNASVMNLLLISFDRYFSVTRPLSYRAKRTPRRAALMIGLAWLVSFVLWAPAILFWQYLVGERTVLAGQCYIQFLSQPIITFGTAMAAFYLPVTVMCTLYWRIYRETENRARELAALQGSETPGKGGGSSSSSERSQPGAEGSPETPPGRCCRCCRAPRLLQAYSWKEEEEEDEGSMESLTSSEGEEPGSEVVIKMPMVDPEAQAPTKQPPRSSPNTVKRPTKKGRDRAGKGQKPRGKEQLAKRKTFSLVKEKKAARTLSAILLAFILTWTPYNIGVLVSTFCKDCVPETLWELGYWLCYVNSTINPMCYALCNKAFRDTFRLLLLCRWDKRRWRKIPKRPGSVHRTPSRQC
For B5, the “% 3H-NMS retained BOG” value (listed as M384/40 1) was 71%, the “% 3H-NMS retained BOG” value (listed as M384/40 2) was 82% and the “% loss/wt” value was 0.44. For the same molecule, the mean % retained was 76.5%.

B6: I383/21: Sequencing established that I383/21 is I383G (M1 mAChR) (protein, UniProt P11229 1-460, looked up, variant I383G)
Muscarinic acetylcholine …: MNTSAPPAVSPNITVLAPGKGPWQVAFIGITTGLLSLATVTGNLLVLISFKVNTELKTVNNYFLLSLACADLIIGTFSMNLYTTYLLMGHWALGTLACDLWLALDYVASNASVMNLLLISFDRYFSVTRPLSYRAKRTPRRAALMIGLAWLVSFVLWAPAILFWQYLVGERTVLAGQCYIQFLSQPIITFGTAMAAFYLPVTVMCTLYWRIYRETENRARELAALQGSETPGKGGGSSSSSERSQPGAEGSPETPPGRCCRCCRAPRLLQAYSWKEEEEEDEGSMESLTSSEGEEPGSEVVIKMPMVDPEAQAPTKQPPRSSPNTVKRPTKKGRDRAGKGQKPRGKEQLAKRKTFSLVKEKKAARTLSAILLAFILTWTPYNGMVLVSTFCKDCVPETLWELGYWLCYVNSTINPMCYALCNKAFRDTFRLLLLCRWDKRRWRKIPKRPGSVHRTPSRQC
B6 was tested, and the “% 3H-NMS retained BOG” value (listed as I383/21 1) was 70%, the “% 3H-NMS retained BOG” value (listed as I383/21 2) was 62% and the “% loss/wt” value was 0.64. It also gave a mean % retained of 66%.
